± gives the uncertainty stated by the source.

The series in a line: amyloid nucleation score (Sup35N fusion, yeast selection) (log enrichment); library NNK3; higher = more nucleation; inactive = no reads after selection. Summed up:
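The nucleation score is the DiMSum log enrichment of output over input reads, centred on the mode score of non-aggregating sequences. Only sequences with 100 or more input reads were scored, using Illumina sequencing of input and output plasmid inserts. Psi-negative yeast expressing Sup35N fused to peptides of 20 random codons were induced 24 hours with 100 μM copper sulfate and grown 7 days at 30°C on medium lacking adenine and uracil.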
With HREPTNSNRMEIELRKSVWR, the amyloid nucleation score entry is “inactive”.

In the case of HRLVGTNISSTR, the amyloid nucleation score result was “inactive”.

Consider HRMCVRRFRVFRESVEEVHF, for which the amyloid nucleation score result is “inactive”.

On to HRSINCWAYVRL, for which the amyloid nucleation score result was “inactive”.

Consider HRSISLRLYWNIHVKCFLTY, for which the amyloid nucleation score entry was “inactive”.

Substance HRVYLPGRWRLMISLSC returned an amyloid nucleation score of -0.201 ± 1.3.

As for HRWNMSWFGYFNLRLSVIET, the amyloid nucleation score result was “inactive”.

For the substance HRYVKALRFF, the amyloid nucleation score entry was “inactive”.

For the substance HSDCDRTVTSGVELDSYGWT, the amyloid nucleation score entry is “inactive”.

For the substance HSIIRVSFLDMVCAGNSIVR, the amyloid nucleation score was -0.504 ± 1.9.

Consider HSIIVEWKC, for which the amyloid nucleation score entry was “inactive”.

Regarding HSLIVYHLS, the amyloid nucleation score result was “inactive”.

HSMLDFFST: the amyloid nucleation score entry is “inactive”.

Turning to HSRVWGKYSGSLPGKM, the amyloid nucleation score entry is “inactive”.

For HSRWMAFPWMLGPLLLNRNL, the amyloid nucleation score entry was “inactive”.

HSSSYCSSYKERSIPWSW yielded an amyloid nucleation score of 0.93 ± 0.12.

On to HSTLSLMHDSYRACSWKCNA, for which the amyloid nucleation score result was “inactive”.

For the substance HTYDCAAFCPAGAGNR, the amyloid nucleation score result was “inactive”.

In turn, HVDTSPSYIPPGIKLVRQRM yielded an amyloid nucleation score of -0.528 ± 0.36.

In the case of HVFIEFGKL, the amyloid nucleation score was -0.259 ± 0.42.

Consider HVFNGY, for which the amyloid nucleation score entry was “inactive”.

With HVFRLCMGKTELAYFY, the amyloid nucleation score result is “inactive”.

For HVGAIMLLLLLTSERLMTLD, the amyloid nucleation score result was “inactive”.

Turning to HVLYRRSSPYCVRWCNITER, the amyloid nucleation score result was “inactive”.

In the case of HVSLNLDSQNCCMSECFA, the amyloid nucleation score result was “inactive”.

Regarding HVTQLNGVAYSCEI, the amyloid nucleation score result was “inactive”.

On to HVVFNIIFWYSGRIGLSDIT, for which the amyloid nucleation score came out at 1.94 ± 0.084.

For HVVHYDMFHDGLSLWDQEAR, the amyloid nucleation score result is “inactive”.

As to HWFTLSKYGR, the amyloid nucleation score result was “inactive”.

As to HYADSVESRSALLWLVSFLF, the amyloid nucleation score result is “inactive”.

For the substance HYFGKT, the amyloid nucleation score entry was “inactive”.

With HYKVPWF, the amyloid nucleation score result was “inactive”.

With HYMRMQTSLANRYIARNVAR, the amyloid nucleation score entry is “inactive”.

Consider IALSTDSMPRYLEALRACGC, for which the amyloid nucleation score result was “inactive”.

In the case of IANCRIS, the amyloid nucleation score amounted to 1.34 ± 0.094.

In the case of IAQIFLACRTVT, the amyloid nucleation score result is “inactive”.

As for IARATFFINQR, the amyloid nucleation score amounted to 1.43 ± 0.15.

On to IARFGVKSVGWSFAENMSST, for which the amyloid nucleation score result was “inactive”.

As to IATIFGVHFRQNDDWIVALY, the amyloid nucleation score entry is “inactive”.

In the case of IAWRQAGDFITLNLSIWMRL, the amyloid nucleation score result was “inactive”.

As for ICEPADQV, the amyloid nucleation score entry was “inactive”.

For the substance ICFFRGAARMNCLGYQGITR, the amyloid nucleation score result was “inactive”.

For the substance ICFGDKVRIKFFVPSIFSWY, the amyloid nucleation score result was “inactive”.

Regarding ICFVSCKLFFVDSLCFCFAG, the amyloid nucleation score result was “inactive”.

For the substance ICILADEYLMCGYGYFHFDY, the amyloid nucleation score result is “inactive”.

For the substance ICLVEISDGAFRKR, the amyloid nucleation score entry is “inactive”.

As to ICMSMNMSADPGMPAIMFNY, the amyloid nucleation score result is “inactive”.

Consider ICRLVLIWVPRSSGGVSSSR, for which the amyloid nucleation score result was “inactive”.

Regarding ICSFFGNSPVRLQVYFLWSW, the amyloid nucleation score result is “inactive”.

In turn, ICSFRTWA came in with an amyloid nucleation score of 0.978 ± 0.1.

As for ICSMYTTVSRNTEL, the amyloid nucleation score result was “inactive”.

On to ICTVNMTNQSEC, for which the amyloid nucleation score result is “inactive”.

The substance ICYRWY showed an amyloid nucleation score of 0.192 ± 0.19.

Consider IDALIYG, for which the amyloid nucleation score result was “inactive”.

Substance IDARRFQGFNISSYMN had an amyloid nucleation score of 0.372 ± 0.28.

For IDCGGFDDIRVVSGDDEKMW, the amyloid nucleation score entry is “inactive”.

As for IDDEIANSSFQVWLKGGFLV, the amyloid nucleation score entry was “inactive”.

Take IDHKCCNNTVS: the amyloid nucleation score result was “inactive”.

As to IDILNG, the amyloid nucleation score was determined as 0.152 ± 0.71.

Regarding IDLKY, the amyloid nucleation score result was “inactive”.

Turning to IDMILC, the amyloid nucleation score result is “inactive”.

For IDQCNIVGTRKNGHAL, the amyloid nucleation score result was “inactive”.

In the case of IDTAFRSYCYDFDLANDLMG, the amyloid nucleation score result is “inactive”.

For IDTVNFKVLHVGI, the amyloid nucleation score entry was “inactive”.

Consider IDYRMYYY, for which the amyloid nucleation score result is “inactive”.

Take IEFGGNN: the amyloid nucleation score was 1.68 ± 0.13.

In the case of IEFGVCKVRNVVNDVRFRRG, the amyloid nucleation score result was “inactive”.

On to IEFRLWYG, for which the amyloid nucleation score result was “inactive”.

For the substance IELLCGLDIT, the amyloid nucleation score result was “inactive”.

Turning to IEQRLRLKSLSYFFINDVKI, the amyloid nucleation score entry is “inactive”.

With IEREMCTGNLVPLNAWKRFH, the amyloid nucleation score result is “inactive”.

IESKAWISVAGARFYSLGVG: the amyloid nucleation score entry is “inactive”.

As for IEWVRNTLSISLIERYRLNG, the amyloid nucleation score entry is “inactive”.

With IFCST, the amyloid nucleation score result is “inactive”.

In the case of IFGWLVDYLSFRVYKEDKGV, the amyloid nucleation score result is “inactive”.

For IFHGSLYGFHYEPCLQAWAA, the amyloid nucleation score entry is “inactive”.

In the case of IFIQLSDLMQSKVAHECGWC, the amyloid nucleation score entry is “inactive”.

Substance IFLDNFFKSFFGRRGSKS showed an amyloid nucleation score of 0.662 ± 0.13.

On to IFLGYRNYDYFSFTVLVE, for which the amyloid nucleation score result was “inactive”.

Turning to IFLYNVLIGLCLDNPYKLFG, the amyloid nucleation score entry was “inactive”.

Take IFQRKRRTYLS: the amyloid nucleation score entry was “inactive”.

With IFSLYMGASCMWLMIVGWLD, the amyloid nucleation score result is “inactive”.

Turning to IFSVFLLTMLEQRQKAHSLM, the amyloid nucleation score entry is “inactive”.

In the case of IFTDLVA, the amyloid nucleation score result was “inactive”.

Take IFTTNCYISNFYNGWWDV: the amyloid nucleation score came out at 2.91 ± 0.078.

IFYVWQLLYYGEQRGGS showed an amyloid nucleation score of 1.63 ± 0.088.

Turning to IGGRKALAALSVYHNVMRCL, the amyloid nucleation score result is “inactive”.

With IGITLFENHKFGLGLANVPG, the amyloid nucleation score entry is “inactive”.

With IGMKFCAYVLLSYKAITMFG, the amyloid nucleation score entry was “inactive”.

IGNCFMTMGRLVSRQDSVPM came in with an amyloid nucleation score of -0.427 ± 1.

Consider IGRLMA, for which the amyloid nucleation score result was “inactive”.

As to IGSFVKDKLSRRIGTGRMEI, the amyloid nucleation score result was “inactive”.

For IGYLDFVHSIENVVYNWGAS, the amyloid nucleation score result is “inactive”.

As for IGYTRLLFLMDVTVGIRVGW, the amyloid nucleation score result was “inactive”.

With IHFMCMWVSNWYVLLVLKE, the amyloid nucleation score entry is “inactive”.

For the substance IHGHC, the amyloid nucleation score result is “inactive”.

With IHRMMAYDFCRNLYFSEQWG, the amyloid nucleation score result was “inactive”.

For IIADKVQSLISFDNVGMCQW, the amyloid nucleation score entry was “inactive”.

Substance IIAGGTYECQIQIVYF registered an amyloid nucleation score of 1.22 ± 0.14.

Take IIAPSGVGWYWR: the amyloid nucleation score entry was “inactive”.

IICLK: the amyloid nucleation score entry is “inactive”.

Turning to IICYSWRRFLC, the amyloid nucleation score result is “inactive”.

With IIEDLLLHWLGVWVFSKKFA, the amyloid nucleation score entry was “inactive”.

As to IIFFNSDMNLGTDV, the amyloid nucleation score entry is “inactive”.

For the substance IIFIF, the amyloid nucleation score came to 1.3 ± 0.14.

Take IIGSCGGFVSLACSGTLDGV: the amyloid nucleation score is 0.538 ± 0.2.

As to IIGSFC, the amyloid nucleation score entry was “inactive”.

IINATVCHCM returned an amyloid nucleation score of 3.33 ± 0.077.

Regarding IINIRVIVSSLFPFLSSEFS, the amyloid nucleation score result was “inactive”.

Turning to IIRISEFDSCGQTAW, the amyloid nucleation score result was “inactive”.

With IISMFYSSKA, the amyloid nucleation score entry was “inactive”.

IIVTKGAMR showed an amyloid nucleation score of -0.87 ± 1.7.

IIWREVINVAVYRVVAVTHK: the amyloid nucleation score entry was “inactive”.

Take IIYILPLCPRV: the amyloid nucleation score result was “inactive”.

Take IIYRKVVKRCAWITDKEIPG: the amyloid nucleation score entry was “inactive”.

With IKAYSRRSLSSSG, the amyloid nucleation score entry is “inactive”.

With IKFSEWMNVGIVWWHYLISG, the amyloid nucleation score result was “inactive”.

Consider IKMNNDGSMILWSLSSPTDL, for which the amyloid nucleation score result is “inactive”.

The substance IKNHIIVRIDFGLYGEEKDS came in with an amyloid nucleation score of 0.399 ± 0.19.

IKNMHRLDFR gave an amyloid nucleation score of -0.501 ± 1.9.

For the substance IKNYCIIYSETPGRNKCGLR, the amyloid nucleation score is 1.01 ± 0.22.

As to IKSTTSKVPANMDSWLGTKM, the amyloid nucleation score result is “inactive”.

Consider IKVLVWFRSRCGNGANNLVC, for which the amyloid nucleation score result was “inactive”.

Consider IKVSECMSAYIVVFWYRMVV, for which the amyloid nucleation score result was “inactive”.

Turning to IKVTIYPRLTRSNATFMPSM, the amyloid nucleation score entry was “inactive”.

In the case of IKVWRGKVG, the amyloid nucleation score entry is “inactive”.

Take IKYLNLVRSVPLFS: the amyloid nucleation score entry was “inactive”.

Take ILAFLERYTLMWFRELYNAS: the amyloid nucleation score entry is “inactive”.

Consider ILFIDSSFLIVR, for which the amyloid nucleation score entry was “inactive”.

As to ILFSQETRYELSL, the amyloid nucleation score result is “inactive”.

Consider ILFTPMPVVD, for which the amyloid nucleation score result was “inactive”.

For ILGEWLFCSIIFWGVWDYAG, the amyloid nucleation score result is “inactive”.

ILGGGSIFKSRQNMIWYTLS: the amyloid nucleation score was 0.207 ± 0.61.

On to ILISFNQLKP, for which the amyloid nucleation score turned out to be 1.18 ± 0.13.
